Data from the RNAGym collection of RNA variant scans (doi:10.1073/pnas.2313332121).

B1: TPR t1 (parent)
chain: GACCAAUCUGCCCUCAGAGCUCGAGAACAUCUUCGGAUGCAGAGGAGGCAGGCUUCGGUGGCGCGAUAGCGCCAACGUCCUCAACCUCCAAUGCAUCCCACCACAUGAUGAUGCCUGAAGAGCCUUGGUUUUUUG

Variants of: B1
Assay: polymerase ribozyme fitness, log enrichment relative to wild type (log ratio); higher = more active; in vitro selection for triplet polymerase activity
Outline: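 Fitness compares each genotype's enrichment to that of the wild type on a logarithmic scale, averaging replicates with inverse-variance weights. The logarithm is base 2. Enrichment came from Illumina sequencing of input and output libraries after one triplicate round of in vitro selection, which included frozen incubation at −7 °C, of PCR-built, transcribed mutant libraries of each subunit of a heterodimeric triplet polymerase ribozyme. Only genotypes with ≥10 input reads and ≥1 read per output were kept.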

| Variant | polymerase ribozyme fitness (log ratio) |
| --- | --- |
| G42C A66G C79U A121C U133G | -1.36 |
| A41C G61C G93C | -4.23 |
| A43G G48A G63A U78C U112C G127U | -3.79 |
| G42A A111U | -5.4 |
| A41U G47C A75U | -3.07 |
| A41C C70U C85U | -2.92 |
| G42A G57U G122U C123U | -2.35 |
| C40U U59A U116A | -4.02 |
| A41G C70U U78C | -0.997 |
| A43G G47U | -3.37 |
| G42A G44U C73G U112A G122A | -3.21 |
| A41U A66C C70U C97U | -5.29 |
| A41U A50C | -1.53 |
| C40U C72U C98G G127U U131C | -6.34 |
| G42A A46U C76U U96G | -4.78 |
| G42U C88U C101G | -3.94 |
| A43G C64U | -1.23 |
| G42U U130A | -1.76 |
| A41C C56U C94A | -3 |
| G42A U116C | -3.35 |
| G42A G71U U130G | -4.16 |
| G42U A121C | 0.464 |
| C40U A74U A111C | -1.01 |
| A43C C56U C94A G117A | -5.97 |

| Variant | polymerase ribozyme fitness (log ratio) |
| --- | --- |
| A41U G48C A83C C88G | -4.38 |
| C40U A91C C97U C115U | -3.9 |
| G42U G44U C49A G69U U87G A119U G135A | -1.59 |
| A41C C53G C85A A111U U112A U116C | -6.24 |
| A41U G45A C88A C115A U131A | -3.64 |
| G42A C64G C114G G117C | -7.17 |
| A43C A46U C101G C123U | -4.18 |
| A41C G117C A121C | -6.19 |
| C40U G60C | -0.857 |
| G42C G63U C123U U133A | -1.98 |
| A41C G113A C124G | -1.49 |
| A43G C72G U132A G135C | -2.2 |
| C40U C80U C99U C124U | -2.92 |
| G42U C70U U126G | -5.19 |
| A41G G45U C56G | -0.725 |
| A41C A43C C72G C88A G93U C99A C102A C124A | -7.15 |
| A43C G48C G71A | -4.5 |
| C40U C56G | -1.16 |
| A41G A90G | 0.631 |
| C40U C62G | -3.29 |
| G42C G44U A50C U125A | -3.27 |
| A43C U78C C80A C89U | -4.14 |
| G42A A83C | -1.87 |
| C40U U109A G120C | -5.74 |

| Variant | polymerase ribozyme fitness (log ratio) |
| --- | --- |
| A43C U131C | -1.94 |
| G42A C49U C56U U130G | -3.07 |
| A41U G113C C115A C124A | -5.25 |
| A43C C56A A66U U112A | -4.32 |
| A41C C72A | -2.08 |
| G42A G45C G61A A105C C115U | -6.55 |
| G42A C114G | -2.75 |
| A41U U130A | -2.03 |
| C40U A95G | -1.37 |
| G42U U78C C123G | 0.17 |
| G42U C49A U81G | -5.58 |
| G42U G71U | -2.08 |
| G42U C72G G128C | -4.55 |
| C40U C70U A84G | -2.34 |
| G42U A43C G47C C62A U130C | -4.8 |
| C40U C88U | -0.588 |
| C40U G45U G63U U78C | -4.36 |
| A43C G117A | -3.01 |
| A41U C53G G63C C72U G77A | -3.7 |
| G42A G44C C56G G135U | -3.31 |
| A43G G77A A83C C88G A121U G128U | -5.57 |
| A43C U87C C89A A91U U92G G93C U125G | -4.91 |
| A41G G69U G93C | -0.214 |
| A41G G61U G120C | 0.573 |

| Variant | polymerase ribozyme fitness (log ratio) |
| --- | --- |
| A43G C102A | -4.25 |
| A41U G52A G117U | -4.85 |
| A41U A111G | -1.26 |
| A41U C56A U87C | -1.49 |
| C40U G52A | -0.72 |
| A43C G45A A50G G113U G120C | -1.89 |
| A43C U87G G113C | -2.52 |
| G42U A50U G69U A105G | -3.63 |
| G42C A46U C82G | -3.68 |
| C40U G47U C53U | -3.37 |
| A41G A66G | -1.87 |
| A43C C72A U81C | -3.09 |
| A43C U78C C88U G93A | -2.62 |
| A41G G44C G63A C102U C124A G128A | -4.69 |
| A43C G47A C115U U116C | -3.25 |
| A41U U133G | -1.49 |
| C40U G61U C86G | -2.87 |
| G42A C49G C72A C94U U130A U132C | -3.26 |
| C40U A105C | -3.68 |
| G42U A43G C123A | -1.31 |
| C40U U116G | -2.61 |
| A43C C62G | -5.4 |
| G42U C49G U112A | -0.357 |
| G42A C70A C102U C114G U125A | -6.46 |

| Variant | polymerase ribozyme fitness (log ratio) |
| --- | --- |
| A43G U112C G122U | -0.183 |
| G42A C115A U130G | -2.13 |
| A43C G44U | -2.14 |
| C40U A83G U112G | -1.69 |
| C40U G110U G135C | -2.95 |
| A43C G63A C114G C123U | -6.77 |
| G42U G93A | -2.14 |
| G42C U133G | -1.65 |
| A41G G48U C62A C80U A91U C98U C123A | -7.74 |
| G42A U87C C89G A90G C115U | -5.47 |
| A41C G52A C82G C97U C101G A118U A121U | -2.61 |
| A41U U55A | -1.08 |
| G42U C73A | -1.55 |
| G42U C73U | -1.51 |
| A43G G93C G120A | -2.35 |
| G42A C86A U106G | -5.73 |
| G42C U96G | -1.41 |
| G42U U112A | -0.57 |
| G42U G44A C56U G61C A68U C85U G110U U116C | -6.46 |
| A41G U54C G61C C104A | -6.52 |
| A41G G61U A84G U96G C97U | -6.44 |
| A41U C76A | -1.89 |
| G42U C94U U126A U129G | -5.24 |
| C40U C56U A74U U78C C89G | -2.81 |

| Variant | polymerase ribozyme fitness (log ratio) |
| --- | --- |
| G42U G52U U54A A111C G122A | -5.42 |
| A41C G107C G117A | -6.25 |
| A41U U87G | -0.681 |
| C40U G60U U131G | -0.956 |
| A41G G60A | -0.408 |
| C40U A68U A74U C97U C102A A111G | -7.15 |
| G42A C56A U112A G120A | -4.77 |
| C40U G61C C88A | -2.87 |
| G42U C53G G77U U126C | -2.18 |
| A43G C64G U87G G110A | -6.77 |
| G42A C56G C64U G122A | -3.76 |
| A41G U55G A75G U87A A108G | -4.14 |
| A43G C114G | -3.66 |
| C40U C49A G61U C82G U131G | -0.822 |
| A43G A50G G60U A95G U132C | -3.96 |
| A41U A90C | -1.41 |
| G42C G60C G120U | -2.03 |
| A41C C72A U92G G120U U129C | -2.57 |
| G42A C99U | -6.05 |
| A43C G48A C56U G63A G113U U125C U131A | -6.28 |
| A41U C79U | -0.893 |
| G42A G69A G93C | -6.98 |
| A41G G42U A75G A90U G128C U129A | -4.64 |
| A43C G93U | -2.59 |

| Variant | polymerase ribozyme fitness (log ratio) |
| --- | --- |
| G42C C49U | -2.21 |
| G42A U87G | -1.65 |
| A41U G45A C56A G113A | -3.04 |
| G42A C88A C98G G110C | -6.29 |
| A43C G48C | -2.99 |
| G42C G71U G117A | -4.04 |
| C40U C64U | -0.45 |
| A41U C49U C88A A121U | -0.675 |
| G42U G61U C88G C101A G120C | -3.56 |
| C40U C62G G127C | -3.27 |
| A41G G44A C62A U131G | -3.51 |
| G42U A46C C53A U92A A95C C104G U112A | -7.25 |
| A41U C80U | -1.77 |
| C40U A121U | 1.68 |
| G42A C85A C94G G113A | -4.07 |
| A43G C72U C94G C101U U116G | -4.87 |
| C40U C88A C114G | -2.99 |
| C40U G51A G71C | -4.85 |
| A41G C56A C102U | -3.9 |
| A41C C64A A90G | -4.74 |
| A41C C70A U78C G128U U131C | -4.08 |
| A41U G51U C62U | -5.82 |
| C40U G93A | -1.09 |
